Patent US10647739B2, “Flavonoids O-A-glucosylated on the B cycle, method for the production thereof and uses” (Institut National de la Recherche Agronomique, priority 2014, dated 2020)
Residue numbers refer to the chain shown, from its start. In names and notes the source's numbering stands.

B1: V331P: ASNp amylosucrase single mutant (protein, UniProt Q9ZEU2 1-636, looked up, variant V331P)
Amylosucrase: MLTPTQQVGLILQYLKTRILDIYTPEQRAGIEKSEDWRQFSRRMDTHFPKLMNELDSVYGNNEALLPMLEMLLAQAWQSYSQRNSSLKDIDIARENNPDWILSNKQVGGVCYVDLFAGDLKGLKDKIPYFQELGLTYLHLMPLFKCPEGKSDGGYAVSSYRDVNPALGTIGDLREVIAALHEAGISAVVDFIFNHTSNEHEWAQRCAAGDPLFDNFYYIFPDRRMPDQYDRTLREIFPDQHPGGFSQLEDGRWVWTTFNSFQWDLNYSNPWVFRAMAGEMLFLANLGVDILRMDAVAFIWKQMGTSCENLPQAHALIRAFNAVMRIAAPAPFFKSEAIVHPDQVVQYIGQDECQIGYNPLQMALLWNTLATREVNLLHQALTYRHNLPEHTAWVNYVRSHDDIGWTFADEDAAYLGISGYDHRQFLNRFFVNRFDGSFARGVPFQYNPSTGDCRVSGTAAALVGLAQDDPHAVDRIKLLYSIALSTGGLPLIYLGDEVGTLNDDDWSQDSNKSDDSRWAHRPRYNEALYAQRNDPSTAAGQIYQGLRHMIAVRQSNPRFDGGRLVTFNTNNKHIIGYIRNNALLAFGNFSEYPQTVTAHTLQAMPFKAHDLIGGKTVSLNQDLTLQPYQVMWLEIA
B2: V331S: ASNp amylosucrase single mutant (protein, UniProt Q9ZEU2 1-636, looked up, variant V331S)
Amylosucrase: B1 Amylosucrase with P331S
B3: V331Y: ASNp amylosucrase single mutant (protein, UniProt Q9ZEU2 1-636, looked up, variant V331Y)
Amylosucrase: B1 Amylosucrase with P331Y
B4: V331H: ASNp amylosucrase single mutant (protein, UniProt Q9ZEU2 1-636, looked up, variant V331H)
Amylosucrase: B1 Amylosucrase with P331H
B5: V331K: ASNp amylosucrase single mutant (protein, UniProt Q9ZEU2 1-636, looked up, variant V331K)
Amylosucrase: B1 Amylosucrase with P331K
B6: V331R: ASNp amylosucrase single mutant (protein, UniProt Q9ZEU2 1-636, looked up, variant V331R)
Amylosucrase: B1 Amylosucrase with P331R
B7: V331C: ASNp amylosucrase single mutant (protein, UniProt Q9ZEU2 1-636, looked up, variant V331C)
Amylosucrase: B1 Amylosucrase with P331C
B8: V331Q: ASNp amylosucrase single mutant (protein, UniProt Q9ZEU2 1-636, looked up, variant V331Q)
Amylosucrase: B1 Amylosucrase with P331Q
B9: V331D: ASNp amylosucrase single mutant (protein, UniProt Q9ZEU2 1-636, looked up, variant V331D)
Amylosucrase: B1 Amylosucrase with P331D
B10: V331F: ASNp amylosucrase single mutant (protein, UniProt Q9ZEU2 1-636, looked up, variant V331F)
Amylosucrase: B1 Amylosucrase with P331F
B11: V331I: ASNp amylosucrase single mutant (protein, UniProt Q9ZEU2 1-636, looked up, variant V331I)
Amylosucrase: B1 Amylosucrase with P331I
B12: V331G: ASNp amylosucrase single mutant (protein, UniProt Q9ZEU2 1-636, looked up, variant V331G)
Amylosucrase: B1 Amylosucrase with P331G
B13: V331E: ASNp amylosucrase single mutant (protein, UniProt Q9ZEU2 1-636, looked up, variant V331E)
Amylosucrase: B1 Amylosucrase with P331E
B14: V331T: ASNp amylosucrase single mutant (protein, UniProt Q9ZEU2 1-636, looked up, variant V331T)
Amylosucrase: B1 Amylosucrase with P331T
B15: V331W: ASNp amylosucrase single mutant (protein, UniProt Q9ZEU2 1-636, looked up, variant V331W)
Amylosucrase: B1 Amylosucrase with P331W
B16: R446Q: ASNp amylosucrase single mutant, SEQ ID NO: 8 (protein, listed as Neisseria polysaccharea)
chain: SPNSQYLKTRILDIYTPEQRAGIEKSEDWRQFSRRMDTHFPKLMNELDSVYGNNEALLPMLEMLLAQAWQSYSQRNSSLKDIDIARENNPDWILSNKQVGGVCYVDLFAGDLKGLKDKIPYFQELGLTYLHLMPLFKCPEGKSDGGYAVSSYRDVNPALGTIGDLREVIAALHEAGISAVVDFIFNHTSNEHEWAQRCAAGDPLFDNFYYIFPDRRMPDQYDRTLREIFPDQHPGGFSQLEDGRWVWTTFNSFQWDLNYSNPWVFRAMAGEMLFLANLGVDILRMDAVAFIWKQMGTSCENLPQAHALIRAFNAVMRIAAPAVFFKSEAIVHPDQVVQYIGQDECQIGYNPLQMALLWNTLATREVNLLHQALTYRHNLPEHTAWVNYVRSHDDIGWTFADEDAAYLGISGYDHRQFLNRFFVNRFDGSFARGVPFQYNPSTGDCQVSGTAAALVGLAQDDPHAVDRIKLLYSIALSTGGLPLIYLGDEVGTLNDDDWSQDSNKSDDSRWAHRPRYNEALYAQRNDPSTAAGQIYQDLRHMIAVRQSNPRFDGGRLVTFNTNNKHIIGYIRNNALLAFGNFSEYPQTVTAHTLQAMPFKAHDLIGGKTVSLNQDLTLQPYQVMWLEIA

Key:
[1] = apigenin glucosylation acceptor reaction with recombinant glucansucrases (microplate screening); format: biochemical; details: sucrose 146 mM, apigenin 2.5 mM, 3% DMSO, 30° C., 24 h; HPLC-UV 340 nm peak areas
Experimental: (§1) The enzymatic extracts obtained are used to carry out the flavonoid glucosylation enzymatic screening reactions. The enzymatic activity of each centrifuged cell lysate is evaluated in the microplate format, by final weight after 30 minutes incubation in the presence of a final concentration of 146 mM of sucrose, by assaying the reducing sugars with 3,5-dinitrosalicylic acid (DNS). Finally, after dilution in ultrapure water, the absorbance is read at 540 nm.
(§2) The flavonoid acceptor reactions are then carried out in deep-well microplates, in a volume of 300 μl, at final concentrations of sucrose of 146 mM and of flavonoid of 2.5 mM (apigenin) or 5 mM (naringenin) (initially dissolved in 100% DMSO), and 140 μl of centrifuged cell lysate.
(§3) The final DMSO concentration in the reaction medium is 3% (v/v).
(§4) The incubation is carried out at 30° C. and at 700 rpm. After 24 hours, the enzymes are denatured at 95° C. for 15 minutes. These microplates are stored at −80° C. with a view to rapid evaluation of the flavonoid glucosylation by liquid-phase chromatography coupled to mass spectrometry (HPLC-MS or LC-MS).
(§5) With a view to their analyses by HPLC-MS, the extensively homogenized reaction media are diluted to 1/30th in DMSO. The separation of the flavonoids and of their glucosylated forms is carried out in reverse phase with a ProntoSlL Eurobond® 53×3.0 mm 120-3-C18-AQ column (porosity of 120 Å, particle size of 3 μm, C18 grafting, Bischoff Chromatography, Germany).
(§6) The flavonoid glucosylation efficiency was determined from the following formula: Glucosylation efficiency=(Σ(area of the peak of glucosylated flavonoid(s)))/(Σ(area of the peak of glucosylated flavonoid(s))+area of the peak of residual aglycone flavonoid)×100
(§7) The flavonoid glucosylation efficiencies, expressed as a percentage, were calculated from the areas of the peaks of the various products analyzed, as described in example 1, by HPLC with a UV detector (340 nm) after 24 h of reaction.

[2] = naringenin glucosylation acceptor reaction with recombinant glucansucrases (microplate screening); format: biochemical; details: sucrose 146 mM, naringenin 5 mM, 3% DMSO, 30° C., 24 h; HPLC-UV 340 nm peak areas
Experimental: as §1, §2, §3, §4, §5, §6
as §7, with “The flavonoid glucosylation efficiency was determined from the formula set out in example 2. The” for “The”, “(λ340 nm),” for “(340 nm)”

| Molecule | apigenin glucosylation efficiency [1] [%] | naringenin glucosylation efficiency [2] [%] |
| --- | --- | --- |
| B1 | 0.0 | 0.0 |
| B2 | 0.4 | 6.7 |
| B3 | 0.4 | 3.8 |
| B4 | 0.1 | 0.0 |
| B5 | 0.2 | 0.0 |
| B6 | 0.2 | 0.0 |
| B7 | 1.2 | 5.4 |
| B8 | 0.2 | 6.8 |
| B9 | 0.9 | 0.0 |
| B10 | 0.4 | 0.0 |
| B11 | 0.3 | 0.0 |
| B12 | 1.9 | 6.9 |
| B13 | 0.7 | 0.0 |
| B14 | 0.0 | 7.2 |
| B15 | 0.2 | 0.0 |
| B16 | 1.9 | 0.0 |
